In patent US20030172404A1, “Method of modifying plant characters by the targeted expression of a cell cycle control protein” (priority 1999, published 2003):
Values belong to the molecule of their own block, whether it stands above or below them.

Experiments:
[1] = test system: tobacco Cdc2 protein, designated Cdc2a
[2] = test system: tobacco cells containing a dexamethasone-inducible Cdc25 gene; conditions: auxin only
[3] = test system: dexamethasone-inducible Cdc25 gene; assay: Induction of Cdc25 mRNA and protein (northern and western blot); type: cell-based, N. plumbaginifolia; conditions: inducible cell lines; 12 h induction
Protocol: FIG. 1a is a copy of a photographic representation of a northern blot hybridisation showing the induction of Cdc25 mRNA in tobacco cells containing a dexamethasone-inducible Cdc25 gene, in the absence of exogenous cytokinin. […] Total RNA was extracted from tobacco cells either in the absence of added dexamethasone (lane 0), or after 12 h induction with […], or 0.10 μM, or 1.00 μM, or 10.00 μM dexamethasone and then loaded onto agarose gels (60 μg aliquots RNA per lane), transferred to membrane support and probed with a Cdc25-specific probe.
FIG. 1b is a copy of a photographic representation of a western blot showing the induction of p67^Cdc25 protein in tobacco cells containing a dexamethasone-inducible Cdc25 gene, in the absence of exogenous cytokinin. […] Total protein was extracted from tobacco cells either in the absence of added dexamethasone (lane 1), or after 12 h induction with 0.01 μM dexamethasone (Lane 2), or 0.10 μM dexamethasone (Lane 3), or 1.00 μM dexamethasone (Lane 4), or 10.00 µM dexamethasone (Lane 5) and then loaded onto SDS/polyacrylamide gels ([…] aliquots total soluble p67^cdc25 protein per lane), transferred to membrane support and probed with antibody specific for the Cdc25-specific probe. p67^Cdc25 was detected by western blot of 50 μg aliquots of total soluble p67^Cdc25 protein. […]

[4] = target: tobacco Cdc2 protein, designated Cdc2a; remark: listed apart in the source
[5] = test system: plant Cdc2 enzyme; assay: In vitro activation of plant Cdc2 histone kinase by GST-Cdc25; type: biochemical, tobacco
Text: FIG. 2e is a graphical representation showing the change in activity of Cdc2 histone kinase in transgenic tobacco cells containing a dexamethasone-inducible Cdc25 gene, progressing from the late G2 phase hormonal control point into division and following their stimulation with cytokinin. The Cdc2 histone kinase was purified using p13^suc1 beads and treated with GST-Cdc25 fusion protein that had been produced in Escherichia coli cells.
Both Cdc2 and Cdc25 enzyme activities were extracted from tobacco cells, by grinding the cells in liquid nitrogen. For Cdc2 extraction, NDE buffer containing 25 mM HEPES (pH 7.2) with protease and phosphatase inhibitors was used. For Cdc25 extraction, PDE buffer, containing 25 mM MOPS (pH 7.2), 100 mM NaCl, 10 mM DTT, 5 mM EDTA, 1mM EGTA, 1% NP-40, 50 mM NaF, 0.5 mM PMSF, 3 μg ml^−1 leupeptin, and 20 μg ml^−1 aprotinin, was used.
To measure Cdc2 activity, the phosphorylation of H1 histone was followed.
We tested this by investigating whether Cdc25 enzyme could activate Cdc2 from cells in prophase and whether the extent of activation by Cdc25 declined when activation had already occurred in vivo. […] After 12 hours, Cdc2 activity declined during anaphase and the enzyme then became unresponsive to GST-Cdc25, consistent with the anaphase decline in activity being due to proteolysis of cyclin, as observed for cyclin 1b in maize mitosis.

[6] = target: tyrosine phosphorylated Cdc2 from arrested Cdc25-22 mutant fission yeast, P04551
Chain of tyrosine phosphorylated Cdc2 from arrested Cdc25-22 mutant fission yeast, P04551 (P04551 whole entry, looked up, change not shown, tested part not stated): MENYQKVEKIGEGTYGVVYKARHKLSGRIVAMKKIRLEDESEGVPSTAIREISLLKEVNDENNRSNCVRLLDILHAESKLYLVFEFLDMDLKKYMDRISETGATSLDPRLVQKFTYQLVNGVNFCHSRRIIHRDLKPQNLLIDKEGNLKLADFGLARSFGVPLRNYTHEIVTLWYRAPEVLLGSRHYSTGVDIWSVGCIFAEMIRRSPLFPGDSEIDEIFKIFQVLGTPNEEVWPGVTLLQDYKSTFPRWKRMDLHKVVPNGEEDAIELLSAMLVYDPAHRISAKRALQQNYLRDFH

Molecule: plant Cdc25 protein (67 kDa tobacco protein)
Cdc2 histone kinase activity after incubation with immunoprecipitated Cdc25 [1]: non-transgenic plant cells also contain a Cdc25 activity, unambiguously of plant origin, that is both present following cytokinin stimulation and capable of activating plant Cdc2

Molecule: C[C@@H]1C[C@H]2[C@@H]3CCC4=CC(=O)C=C[C@]4(C)[C@@]3(F)[C@@H](O)C[C@]2(C)[C@@]1(O)C(=O)CO [dexamethasone]
dexamethasone concentration that induced division ([2]; cells arrested at G2 phase hormonal control point, no cytokinin, 12 h induction): 0.01 to 10 µM
optimum concentration for induction of division ([2]; independent clones, G2-arrested cells): 0.1 µM
concentration at which Cdc25 mRNA and protein accumulated [3]: 0.01 to 10 µM

B1: GST-Cdc25 catalytic core fusion protein synthesised in Escherichia coli (protein)
chain: SSHVEDLSLPCFAVKEDSLKRITQETLLGLLDGKFKDIFDKCIIIDCRFEYEYLGGHISTAVNLNTKQAIVDAFLSKPLTHRVALVFHCEHSAHRAPHLALHFRNTDRRMNSHRYPFLYYPEVYILHGGYKSFYENHKNRCDPINYVPMNDASHVMTCTKAMNNFKRNATFMRTKSYTFGQSVLASPDVNDSPTAMHSLSTLRRF
Cdc2 histone kinase activity after treatment with GST-Cdc25 [4]: excess bacterially-synthesised GST-Cdc25 could activate plant Cdc2 enzyme that was extracted in prophase between 3 hours and 12 hours

response of Cdc2 to GST-Cdc25 in anaphase ([5]; Cdc2 extracted after 12 hours): unresponsive
activation of plant Cdc2 enzyme ([5]; excess bacterially-synthesised GST-Cdc25, Cdc2 extracted in prophase between 3 hours and 12 hours): could activate plant Cdc2 enzyme
B2: GST-Cdc25: recombinant GST-Cdc25 catalytic core fusion protein synthesised in Escherichia coli (protein)
chain: B1 chain
modifications: left off: a dimerising Fc or GST
notes: recombinant GST-Cdc25 catalytic core fusion protein synthesised in Escherichia coli

B3: fission yeast Cdc25 phosphoprotein phosphatase expressed in transgenic tobacco cells (protein)
chain: MDSPLSSLSFTNTLSGKRNVLRPAARELKLMSDRNANQELDFFFPKSKHIASTLVDPFGKTCSTASPASSLAADMSMNMHIDESPALPTPRRTLFRSLSCTVETPLANKTIVSPLPESPSNDALTESYFFRQPASKYSITQDSPRVSSTIAYSFKPKASIALNTTKSEATRSSLSSSSFDSYLRPNVSRSRSSGNAPPFLRSRSSSSYSINKKKGTSGGQATRHLTYALSRTCSQSSNTTSLLESCLTDDTDDFELMSDHEDTFTMGKVADLPESSVELVEDAASIQRPNSDFGACNDNSLDDLFQASPIKPIDMLPKINKDIAFPSLKVRSPSPMAFAMQEDAEYDEQDTPVLRRTQSMFLNSTRLGLFKSQDLVCVTPKQSTKESERFISSHVEDLSLPCFAVKEDSLKRITQETLLGLLDGKFKDIFDKCIIIDCRFEYEYLGGHISTAVNLNTKQAIVDAFLSKPLTHRVALVFHCEHSAHRAPHLALHFRNTDRRMNSHRYPFLYYPEVYILHGGYKSFYENHKNRCDPINYVPMNDASHVMTCTKAMNNFKRNATFMRTKSYTFGQSVLASPDVNDSPTAMHSLSTLRRF
activation of yeast Cdc2 H1 histone kinase (phosphorylation of H1 histone) [6]: appearance of Cdc25 activity, which was detected by its activation of yeast Cdc2 Hi histone kinase
